Data from patent US20250282866A1 (VIGIL NEUROSCIENCE, published 2025).
Numbering of substitutions follows the chain as printed.

T1: human TREM2 (human, UniProt Q9NZC2 19-174, limits assumed)
T1 construct: also called triggering receptor expressed on myeloid cells 2
T1 sequence: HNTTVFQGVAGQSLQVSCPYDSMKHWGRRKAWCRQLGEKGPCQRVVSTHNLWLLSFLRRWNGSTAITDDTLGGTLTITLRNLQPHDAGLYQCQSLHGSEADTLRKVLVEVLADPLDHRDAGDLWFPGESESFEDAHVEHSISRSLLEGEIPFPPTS

B1: V1 (antibody, V domains shown)
VH: EVQLVQSGAEVKKPGESLKISCKGSGYSFTSSWIAWVRQMPGKGLEWMGIIYPGDSDTRYSPSFQGQVTISADKSISTAYLQWSSLKASDTAMYFCARSRTFYYDSSDYFDYWGQGTLVTVSS
VL: DIQMTQSPSSVSASVGDRVTITCRASQGISSWLAWYQQKPGKAPKLLIYAASSLTNGVPSRFSGSGSGTDFTLTISSLQPEDFATYFCQQADSYPRTFGQGTKLEIK
B2: V55 (antibody, V domains shown)
VH: B1 VH with S32Y, R59I, F64H, S99Q
VL: B1 VL with T55Q, Y94F
B3: V66 (antibody, V domains shown)
VH: B1 VH with Y27T, S32Y, S99Q
VL: B1 VL with T55Q, Y94F
B4: V58 (antibody, V domains shown)
VH: B1 VH with S32Y, S99Q
VL: B1 VL with A50K, T55Q, Y94F
B5: V44 (antibody, V domains shown)
VH: B1 VH with S32Y, G54S, S99Q
VL: B1 VL with T55Q, Y94F
B6: V47 (antibody, V domains shown)
VH: B1 VH with S32Y, S99Q
VL: B1 VL with T55Q, Y94F, R96M
B7: V46 (antibody, V domains shown)
VH: B1 VH with S32Y, S99Q
VL: B1 VL with S53T, T55Q, Y94F
B8: V82 (antibody, V domains shown)
VH: B1 VH with S32Y, S99Q
VL: B1 VL with A51G, T55Q, Y94F
B9: V70 (antibody, V domains shown)
VH: B1 VH with S32Y, S99Q
VL: B1 VL with S52G, T55Q, Y94F
B10: V59 (antibody, V domains shown)
VH: B1 VH with S32Y, S99Q
VL: B1 VL with T55Q, Q89M, Y94F
B11: V81 (antibody, V domains shown)
VH: B1 VH with S32Y, S99Q
VL: B1 VL with W32L, T55Q, Y94F
B12: V57 (antibody, V domains shown)
VH: B1 VH with S32Y, S99Q
VL: B1 VL with R24A, T55Q, Y94F
B13: V92 (antibody, V domains shown)
VH: B1 VH with S32Y, S99Q, Y103H
VL: B1 VL with T55Q, Y94F
B14: V13 (antibody, V domains shown)
VH: B1 VH with T30G, S32Y, P62A, S99G
VL: B1 VL with T55Q, N56G, Y94M
B15: V69 (antibody, V domains shown)
VH: B1 VH with S32Y, S99Q
VL: B1 VL with W32Y, T55Q, Y94F
B16: V90 (antibody, V domains shown)
VH: B1 VH with S32E, S99Q
VL: B1 VL with S31R, T55Q, Y94F
B17: V78 (antibody, V domains shown)
VH: B1 VH with S28R, S32Y, S99Q
VL: B1 VL with T55Q, Y94F
B18: V91 (antibody, V domains shown)
VH: B1 VH with S32Y, G54D, S99Q
VL: B1 VL with T55Q, Y94F
B19: V5 (antibody, V domains shown)
VH: B1 VH with S32Y, I50T, S99Q
VL: B1 VL with T55Q, Y94H
B20: V4 (antibody, V domains shown)
VH: B1 VH with T30G, S32Y, Y60V
VL: B1 VL with S53R, T55Q
B21: V79 (antibody, V domains shown)
VH: B1 VH with S32Y, R59N, S99Q
VL: B1 VL with T55Q, Y94F
B22: V93 (antibody, V domains shown)
VH: B1 VH with S32Y, S99Q
VL: B1 VL with S31G, T55Q, Y94F
B23: V68 (antibody, V domains shown)
VH: B1 VH with S32Y, S99Q, Y103R
VL: B1 VL with T55Q, Y94F
B24: V94 (antibody, V domains shown)
VH: B1 VH with S32Y, S99Q
VL: B1 VL with S52A, T55Q, Y94F
B25: V83 (antibody, V domains shown)
VH: B1 VH with S32Y, S99Q
VL: B1 VL with T55Q, D92V, Y94F
B26: V67 (antibody, V domains shown)
VH: B1 VH with S32Y, I50M, S99Q
VL: B1 VL with T55Q, Y94F
B27: V71 (antibody, V domains shown)
VH: B1 VH with S32Y, S99Q
VL: B1 VL with T55Q, Y94E
B28: V2 (antibody, V domains shown)
VH: B1 VH with Y27S, S32Y, S56G
VL: B1 VL with L54R, T55Q, S93R, Y94F
B29: V56 (antibody, V domains shown)
VH: B1 VH with S32Y, S61Q, S99Q
VL: B1 VL with T55Q, Y94F
B30: V80 (antibody, V domains shown)
VH: B1 VH with S32Y, S99Q, T101N
VL: B1 VL with T55Q, Y94F
B31: V14 (antibody, V domains shown)
VH: B1 VH with T30G, S32Y, S56Q, S99G
VL: B1 VL with S53R, T55Q, Y94F
B32: V3 (antibody, V domains shown)
VH: B1 VH with T30A, S32Y, G66D, S99G
VL: B1 VL with L54R, T55Q, S93R, Y94F
B33: V45 (antibody, V domains shown)
VH: B1 VH with S32Y, S99Q
VL: B1 VL with W32F, T55Q, Y94F
B34: V54 (antibody, V domains shown)
VH: B1 VH with S32Q, S99Q
VL: B1 VL with T55Q, Y94F

target: T1, human TREM2; assay: 1st screen (110 nM or 10 nM)

| Binding Signal (fold over 6E7 Parental antibody) [fold] | Binder |
| --- | --- |
| 1.68 | B1 |
| 0.24 | B2 |
| 0.25 | B3 |
| 0.28 | B4 |
| 0.65 | B5 |
| 0.42 | B6 |
| 0.83 | B7 |
| 0.3 | B8 |
| 0.79 | B9 |
| 0.19 | B10 |
| 0.17 | B11 |
| 0.84 | B12 |
| 0.22 | B13 |
| 1.31 | B14 |
| 0.41 | B15 |
| 0.33 | B16 |
| 0.86 | B17 |

| Binding Signal (fold over 6E7 Parental antibody) [fold] | Binder |
| --- | --- |
| 0.25 | B18 |
| 2.73 | B19 |
| 6 | B20 |
| 0.7 | B21 |
| 0.35 | B22 |
| 0.44 | B23 |
| 0.31 | B24 |
| 0.2 | B25 |
| 0.8 | B26 |
| 0.37 | B27 |
| 2.55 | B28 |
| 0.23 | B29 |
| 0.59 | B30 |
| 4.71 | B31 |
| 1.97 | B32 |
| 0.43 | B33 |
| 0.55 | B34 |

target: T1, human TREM2; assay: 2nd screen 10 nM

| Binding Signal (fold over 6E7 Parental antibody) [fold] | Binder |
| --- | --- |
| 1.92 | B1 |
| 1.35 | B14 |
| 2.84 | B19 |
| 5.51 | B20 |
| 2.9 | B28 |
| 4.64 | B31 |
| 2.24 | B32 |

target: T1, human TREM2; assay: 2nd screen 2 nM

| Binding Signal (fold over 6E7 Parental antibody) [fold] | Binder |
| --- | --- |
| 1.29 | B1 |
| 1.15 | B14 |
| 1.25 | B19 |
| 5.88 | B20 |
| 2.23 | B28 |
| 2.57 | B31 |
| 1.95 | B32 |

target: T1, human TREM2; assay: 2nd screen 100 nM

| Binding Signal (fold over 6E7 Parental antibody) [fold] | Binder |
| --- | --- |
| 0.66 | B2 |
| 0.74 | B3 |
| 0.68 | B4 |
| 0.52 | B5 |
| 0.47 | B6 |
| 0.96 | B7 |
| 0.79 | B8 |
| 0.84 | B9 |
| 0.6 | B10 |
| 0.23 | B11 |
| 0.85 | B12 |
| 0.65 | B13 |
| 0.4 | B15 |
| 0.36 | B16 |
| 1.11 | B17 |
| 0.61 | B18 |
| 0.52 | B21 |
| 1.05 | B22 |
| 0.43 | B23 |
| 0.87 | B24 |
| 0.29 | B25 |
| 0.84 | B26 |
| 0.48 | B27 |
| 0.59 | B29 |
| 0.5 | B30 |
| 0.53 | B33 |
| 0.54 | B34 |
